From patent US20040014658A1 (PROCHON BIOTECH, published 2004) come the findings set out here.

For the test, the target named is L37M-W144G-FGF9 (human, UniProt P31371 38-208). Put plainly: ex vivo mouse femur growth with FGFR3 neutralizing Fab MSPRO-59 (inferred).

Procedure: Femoral bone cultures were performed by excising the hind limbs of wild type mice. The limbs were carefully cleaned from the surrounding tissue (skin and muscles) and the femora exposed. The femora were removed and further cleared from tissue remains and ligaments. The femora were measured for their initial length, using a binocular with an eyepiece micrometer ruler. […] In addition, the medium contains BSA (0.2%), β-glycerophosphate (1 mM) and freshly prepared ascorbic acid (50 μg/ml). The bones were cultured for 15 days. Measurements of bone length and medium replacement were performed every three days.

B1: FGFR3 of wild type mouse femora (receptor)
chain: EPPGPEQRVVRRAAEVPGPEPSQQEQVAFGSGDTVELSCHPPGGAPTGPTVWAKDGTGLVASHRILVGPQRLQVLNASHEDAGVYSCQHRLTRRVLCHFSVRVTDAPSSGDDEDGEDVAEDTGAPYWTRPERMDKKLLAVPAANTVRFRCPAAGNPTPSISWLKNGKEFRGEHRIGGIKLRHQQWSLVMESVVPSDRGNYTCVVENKFGSIRQTYTLDVLERSPHRPILQAGLPANQTAILGSDVEFHCKVYSDAQPHIQWLKHVEVNGSKVGPDGTPYVTVLKTAGANTTDKELEVLSLHNVTFEDAGEYTCLAGNSIGFSHHSAWLVVLPAEEELMETDEAGSVYAGVLSYGVVFFLFILVVAAVILCRLRSPPKKGLGSPTVHKVSRFPLKRQVSLESNSSMNSNTPLVRIARLSSGEGPVLANVSELELPADPKWELSRTRLTLGKPLGEGCFGQVVMAEAIGIDKDRTAKPVTVAVKMLKDDATDKDLSDLVSEMEMMKMIGKHKNIINLLGACTQGGPLYVLVEYAAKGNLREFLRARRPPGMDYSFDACRLPEEQLTCKDLVSCAYQVARGMEYLASQKCIHRDLAARNVLVTEDNVMKIADFGLARDVHNLDYYKKTTNGRLPVKWMAPEALFDRVYTHQSDVWSFGVLLWEIFTPGGPSPYPGIPVEELFKLLKEGHRMDKPASCTHDLYMIMRECWHAVPSQRPTFKQLVEDLDRILTVTSTDEYLDLSVPFEQYSPGGQDTPSSSSSGDDSVFTHDLLPPGPPSNGGPRT
notes: whole, on cells; Endogenous receptor in bone tissue culture
On to B1, for which the binding result is given as “binds”.
